Earlier results, collected in patent publication US20080095848A1, “Pharmaceutical Composition For Topical Use In Form Of Xerogels Or Films And Methods For Production” (Ludwig-maximilian-University, priority 2004, published 2008).

Details: aqueous formulation, within two weeks

B1: EGF: growth factor; wound healing factor, protein unstable in aqueous formulation (protein, UniProt P01133 23-1207, looked up)
Pro-epidermal growth factor: PQHWSCPEGTLAGNGNSTCVGPAPFLIFSHGNSIFRIDTEGTNYEQLVVDAGVSVIMDFHYNEKRIYWVDLERQLLQRVFLNGSRQERVCNIEKNVSGMAINWINEEVIWSNQQEGIITVTDMKGNNSHILLSALKYPANVAVDPVERFIFWSSEVAGSLYRADLDGVGVKALLETSEKITAVSLDVLDKRLFWIQYNREGSNSLICSCDYDGGSVHISKHPTQHNLFAMSLFGDRIFYSTWKMKTIWIANKHTGKDMVRINLHSSFVPLGELKVVHPLAQPKAEDDTWEPEQKLCKLRKGNCSSTVCGQDLQSHLCMCAEGYALSRDRKYCEDVNECAFWNHGCTLGCKNTPGSYYCTCPVGFVLLPDGKRCHQLVSCPRNVSECSHDCVLTSEGPLCFCPEGSVLERDGKTCSGCSSPDNGGCSQLCVPLSPVSWECDCFPGYDLQLDEKSCAASGPQPFLLFANSQDIRHMHFDGTDYGTLLSQQMGMVYALDHDPVENKIYFAHTALKWIERANMDGSQRERLIEEGVDVPEGLAVDWIGRRFYWTDRGKSLIGRSDLNGKRSKIITKENISQPRGIAVHPMAKRLFWTDTGINPRIESSSLQGLGRLVIASSDLIWPSGITIDFLTDKLYWCDAKQSVIEMANLDGSKRRRLTQNDVGHPFAVAVFEDYVWFSDWAMPSVMRVNKRTGKDRVRLQGSMLKPSSLVVVHPLAKPGADPCLYQNGGCEHICKKRLGTAWCSCREGFMKASDGKTCLALDGHQLLAGGEVDLKNQVTPLDILSKTRVSEDNITESQHMLVAEIMVSDQDDCAPVGCSMYARCISEGEDATCQCLKGFAGDGKLCSDIDECEMGVPVCPPASSKCINTEGGYVCRCSEGYQGDGIHCLDIDECQLGEHSCGENASCTNTEGGYTCMCAGRLSEPGLICPDSTPPPHLREDDHHYSVRNSDSECPLSHDGYCLHDGVCMYIEALDKYACNCVVGYIGERCQYRDLKWWELRHAGHGQQQKVIVVAVCVVVLVMLLLLSLWGAHYYRTQKLLSKNPKNPYEESSRDVRSRRPADTEDGMSSCPQPWFVVIKEHQDLKNGGQPVAGEDGQAADGSMQPTSWRQEPQLCGMGTEQGCWIPVSSDKGSCPQVMERSFHMPSYGTQTLEGGVEKPHSLLSANPLWQQRALDPPHQMELTQ
modifications: Pro-epidermal growth factor
In the case of B1, the loss of activity is listed as 40%.
